Key:
Type in all cases: biochemical
[1] = Carboxylate reductase activity, 7-oxoheptanoate to heptanedial, NADPH consumption at 340 nm; conditions: enhanced by gene product of sfp, 2 mM substrate, 20 min, against empty vector control, FIG. 46
Method: The N-terminal His-tagged carboxylate reductase of SEQ ID NO: 38 (GenBank Accession No. ADG98140.1) (see Example 4) was assayed using 7-oxoheptanoate as substrate. The enzyme activity assay was performed in triplicate in a buffer composed of a final concentration of 50 mM HEPES buffer (pH=7.5), 2 mM 7-oxoheptanoate, 10 mM MgCl2, 1 mM ATP and 1 mM NADPH. The enzyme activity assay reaction was initiated by adding purified carboxylate reductase and phosphopantetheine transferase or the empty vector control to the assay buffer containing the 7-oxoheptanoate and then incubated at room temperature for 20 min. The consumption of NADPH was monitored by absorbance at 340 nm.

[2] = Carboxylate reductase activity, 7-hydroxyheptanoate to 7-hydroxyheptanal, NADPH consumption at 340 nm; conditions: enhanced by gene product of sfp, 20 min, against empty vector control, FIG. 44
[3] = Carboxylate reductase activity, N7-acetyl-7-aminoheptanoate to N7-acetyl-7-aminoheptanal, NADPH consumption at 340 nm; conditions: enhanced by gene product of sfp, 2 mM substrate, 20 min, against empty vector control, FIG. 45
Method: The activity of each of the N-terminal His-tagged carboxylate reductases of SEQ ID NOs: 29 (GenBank Accession No. ABK71854.1), 37 (Genbank Accession No. EIV11143.1), and 38 (GenBank Accession No. ADG98140.1) (see Examples 4) for converting N7-acetyl-7-aminoheptanoate to N7-acetyl-7-aminoheptanal was assayed in triplicate in a buffer composed of a final concentration of 50 mM HEPES buffer (pH=7.5), 2 mM N7-acetyl-7-aminoheptanoate, 10 mM MgCl2, 1 mM ATP, and 1 mM NADPH. The assays were initiated by adding purified carboxylate reductase and phosphopantetheine transferase or the empty vector control to the assay buffer containing the N7-acetyl-7-aminoheptanoate then incubated at room temperature for 20 min. The consumption of NADPH was monitored by absorbance at 340 nm.

[4] = Carboxylate reductase activity, heptanedioate to 7-oxoheptanoate, NADPH consumption at 340 nm; conditions: enhanced by gene product of sfp, 2 mM substrate, 20 min, against empty vector control, FIG. 43
Method: A sequence encoding a HIS-tag was added to the genes from Segniliparus rugosus and Segniliparus rotundus that encode the carboxylate reductases of SEQ ID NOs: 31 (GenBank Accession No. EFV11917.1) and 38 (GenBank Accession No. ADG98140.1), respectively, such that N-terminal HIS tagged carboxylate reductases could be produced. Each of the modified genes was cloned into a pET Duet expression vector along with a sfp gene encoding a HIS-tagged phosphopantetheine transferase from Bacillus subtilis, both under the T7 promoter. Each expression vector was transformed into a BL21[DE3] E. coli host and the resulting recombinant E. coli strains were cultivated at 37° C. in a 250 mL shake flask culture containing 50 mL LB media and antibiotic selection pressure, with shaking at 230 rpm. Each culture was induced overnight at 37° C. using an auto-induction media.
The pellet from each induced shake flask culture was harvested via centrifugation. Each pellet was resuspended and lysed via sonication, and the cell debris was separated from the supernatant via centrifugation. […]
Enzyme activity assays (i.e., from heptanedioate to 7-oxoheptanoate) were performed in triplicate in a buffer composed of a final concentration of 50 mM HEPES buffer (pH=7.5), 2 mM heptanedioate, 10 mM MgCl2, 1 mM ATP, and 1 mM NADPH. […] The consumption of NADPH was monitored by absorbance at 340 nm.

[5] = Esterase activity assay, monomethyl heptanedioate to heptanedioic acid, LC-MS; conditions: esterase assays
Method: A nucleotide sequence encoding a C-terminal His-tag may be added to the gene from Bacillus subtilis encoding the esterase of SEQ ID NO: 50 (NCBI Reference Sequence: NP_388108.1) such that a C-terminal HIS tagged esterase is produced. The resulting modified gene is cloned into a pET28b+ expression vector under control of the T7 promoter and the expression vector is transformed into a BL21[DE3] E. coli host. The resulting recombinant E. coli strain can be cultivated at 37° C. in a 500 mL shake flask culture containing 100 mL LB media and antibiotic selection pressure, with shaking at 230 rpm. Each culture is induced overnight at 18° C. using 0.3 mM IPTG.
The pellet from each induced shake flask culture can be harvested via centrifugation. Each pellet is resuspended and lysed via sonication. The cell debris is separated from the supernatant via centrifugation. The esterase can be purified from the supernatant using Ni-affinity chromatography, buffer exchanged and concentrated into 20 mM HEPES buffer (pH=7.5) via ultrafiltration and stored at 4° C.
Enzyme activity assays converting monomethyl heptanedioate to heptanedioic acid are performed in triplicate in a buffer composed of a final concentration of 25 mM Tris-HCl buffer (pH=7.0) and 5 [mM] monomethyl heptanedioic acid. […] The formation of heptanedioic acid can be quantified via LC-MS.

B1: SEQ ID NO: 38: Segniliparus rotundus carboxylate reductase (protein, listed as Segniliparus rotundus)
chain: MTQSHTQGPQASAAHSRLARRAAELLATDPQAAATLPDPEVVRQATRPGLRLAERVDAILSGYADRPALGQRSFQTVKDPITGRSSVELLPTFDTITYRELRERATAIASDLAHHPQAPAKPGDFLASIGFISVDYVAIDIAGVFAGLTAVPLQTGATLATLTAITAETAPTLFAASIEHLPTAVDAVLATPSVRRLLVFDYRAGSDEDREAVEAAKRKIADAGSSVLVDVLDEVIARGKSAPKAPLPPATDAGDDSLSLLIYTSGSTGTPKGAMYPERNVAHFWGGVWAAAFDEDAAPPVPAINITFLPLSHVASRLSLMPTLARGGLMHFVAKSDLSTLFEDLKLARPTNLFLVPRVVEMLYQHYQSELDRRGVQDGTREAEAVKDDLRTGLLGGRILTAGFGSAPLSAELAGFIESLLQIHLVDGYGSTEAGPVWRDGYLVKPPVTDYKLIDVPELGYFSTDSPHPRGELAIKTQTILPGYYKRPETTAEVFDEDGFYLTGDVVAQIGPEQFAYVDRRKNVLKLSQGEFVTLAKLEAAYSSSPLVRQLFVYGSSERSYLLAVIVPTPDALKKFGVGEAAKAALGESLQKIARDEGLQSYEVPRDFIIETDPFTVENGLLSDARKSLRPKLKEHYGERLEAMYKELADGQANELRDIRRGVQQRPTLETVRRAAAAMLGASAAEIKPDAHFTDLGGDSLSALTFSNFLHDLFEVDVPVGVIVSAANTLGSVAEHIDAQLAGGRARPTFATVHGKGSTTIKASDLTLDKFIDEQTLEAAKHLPKPADPPRTVLLTGANGWLGRFLALEWLERLAPAGGKLITIVRGKDAAQAKARLDAAYESGDPKLAGHYQDLAATTLEVLAGDFSEPRLGLDEATWNRLADEVDFISHPGALVNHVLPYNQLFGPNVAGVAEIIKLAITTRIKPVTYLSTVAVAAGVEPSALDEDGDIRTVSAERSVDEGYANGYGNSKWGGEVLLREAHDRTGLPVRVFRSDMILAHQKYTGQVNATDQFTRLVQSLLATGLAPKSFYELDAQGNRQRAHYDGIPVDFTAESITTLGGDGLEGYRSYNVFNPHRDGVGLDEFVDWLIEAGHPITRIDDYDQWLSRFETSLRGLPESKRQASVLPLLHAFARPGPAVDGSPFRNTVFRTDVQKAKIGAEHDIPHLGKALVLKYADDIKQLGLL
modifications: Segniliparus rotundus (strain ATCC BAA-972 / CDC 1076 / CIP 108378 / DSM 44985 / JCM 13578)
notes: Segniliparus rotundus carboxylate reductase
acceptance of 7-oxoheptanoate as substrate, forming heptanedial [1]: accepted 7-oxoheptanoate as substrate
acceptance of 7-hydroxyheptanoate as substrate, forming 7-hydroxyheptanal [2]: accepted 7-hydroxyheptanoate as substrate
acceptance of N7-acetyl-7-aminoheptanoate as substrate, forming N7-acetyl-7-aminoheptanal [3]: accepted N7-acetyl-7-aminoheptanoate as substrate
acceptance of heptanedioate as substrate, forming 7-oxoheptanoate [4]: accepted heptanedioate as substrate

B2: esterase from Streptomyces diastatochromogenes: estA from Streptomyces diastatochromogenes classified under EC 3.1.1.1 (protein)
chain: MARFRTRLALLGSAAALAAGAVVPAQLAGAQPAAAAADLQWVALGDSYTAGVIRAAGDAIDYPRDGCERTDRSYPQVIERDLYGLFDLTNVSCGAATIENVSDTPQYPIGRHMPPFSEDPDHPFPPVPPQSEAVGPGTDVITVGVGGNTLGFADILTKCQELGGESGGEGTPCKGALGSGIKARLDKVSQGYDRMLTVLHERGPKAKILTVGYPTVIPENTADCGYGDLTKFGTITQGDLAWLRQDVLEPLNKTIEDSAATQEAADFVNLYAPSQGHSVCDADKWVEGILTVSPNQDPQLSFVHPNASGHRNAADHVEEAMLNAIS
modifications: Streptomyces diastatochromogenes
methyl ester hydrolysis of a C7 compound [5]: affected the methyl ester hydrolysis of a C7 compound
